According to patent US20100104577A1 (published 2010):

Assays:
Aβ1-40 = molecular target: T1, Aβ1-40 (human, UniProt P05067 672-711); experiment: pulldown of conditioned media of transfected 293T cells with fibrillar Aβ40, western blot with anti-His
T1 construct: domain: Aβ1-40; Used as a soluble peptide (ELISA), as fibrils (fAβ40 pulldown) and as expressed in TgBRI-Aβ40, Tg2576 and CRND8 mice (plasma complexes); also called Aβ40; human Aβ40
Description: (§1) Fibrillar Aβ pulldown assays. One mL of conditioned media from 293T HEK cells transiently transfected with pSecTag palsmids encoding the anti-Aβ scFv was incubated with 10 μg of fibrillar Aβ40 or Aβ42 (fAβ) at 4° C. for 1 hour. The fibrils were then spun down and resuspended in SDS-PAGE loading buffer. The presence of scFv was determined by western blot with rabbit anti-His (Bethyl). To determine the Aβ40 binding properties of scFv secreted into the media, capture ELISA was used with Aβ40 peptide as capture and anti-myc-HRP, 1:2000, as detection.
(§2) Prior to testing the effects of the scFv in vivo, the anti-Aβ scFvs expressed from 293T cells were characterized.

Aβ1-42 = molecular target: T2, Aβ1-42 (human, UniProt P05067 672-713); experiment: pulldown of conditioned media of transfected 293T cells with fibrillar Aβ42, western blot with anti-His
T2 construct: domain: Aβ1-42; also called Aβ42; fAβ42 (fibrillar form in the pulldown)
T2 sequence (P05067 672-713 limits assumed): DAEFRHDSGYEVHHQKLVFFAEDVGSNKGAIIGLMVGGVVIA
Description: as §1, §2

T1 sequence (P05067 672-711 limits assumed): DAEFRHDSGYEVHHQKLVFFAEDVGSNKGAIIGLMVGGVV

Row | binding result (Aβ1-40) | binding result (Aβ1-42) | Binder
1 | no binding | binds | scFv42.2 (scFv, VH-linker-VL from mAb42.2; secreted from 293T HEK cells (pSecTag), detected by anti-His and anti-myc; Tested as conditioned medium; also called anti-Aβ42 specific scFv42.2) scFv: EVQLQQSGPELVKPGASGKISCKTSGYTFSENTMHWVKQSHGKSLEWIGGINPNTGATYYNQKFKGKATLTVDTSSSTAYLELRSLTSADSAVYYCVRNGLLTLGAMDYWGQGTSVTVSSGGGGSGGGGSGGGGSDVVMTQTPLSLPVSLGDQASISCRSSQSLVHSNGNTYLYWCLQKPGQSPKLLIYKVSSRFSGVPDRFSGSGSGTDFTLKISRVEAEDLGVYFCSQSTHAPLTFGAGTKLELKR
2 | binds |  | scFv40.1 (scFv, VH-linker-VL from mAb40.1; secreted from 293T HEK cells (pSecTag), detected by anti-His and anti-myc; Tested as conditioned medium) scFv: EVQLQQSGADLVKPGASVKLSCTASGFNIKATYMHWVRQRPEQGLEWIGRIDPANGDTKYDPKFQGKATLTVDTSSNTAYLQLSSLTSEDTAVYYCSTLYYREAYWGQGTLVTVSAGGGGSGGGSGGGGSDVVMTQTPLTLSVTIGQPASISCKSSQRLIYSDGKTYLNWLLQRPGQSPKRLIYLVSKLDSGVPDRFTGSGSGTDFTLKISRVEAEDLGVYYCWQGTHFPVTFGAGTKLELKR
